From the RNAGym collection of RNA variant scans (doi:10.1073/pnas.2313332121)
Variants at the floor of the assay were thinned out.

B1: TPR 5TU (parent)
chain: GGAUCUUCUCGAUCUAACAAAAAAGACAAAUCUGCCACAAAGCUUGAGAGCAUCUUCGGAUGCAGAGGCGGCAGCCUUCGGUGGCGCGAUAGCGCCAACGUUCUCAACUAUGACACGCAAAACGCGUGCUCCGUUGAAUGGAGUUUAUCAUG

Variants of: B1
Assay: polymerase ribozyme fitness, log enrichment relative to wild type (log ratio); higher = more active; in vitro selection for triplet polymerase activity
In short: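 Mutant libraries of both subunits of a heterodimeric triplet polymerase ribozyme were PCR-built, transcribed, and selected once in triplicate, with frozen incubation at −7 °C and capture of gel-excised extended constructs on streptavidin beads before RT-PCR. Illumina sequencing of input and output libraries was filtered to genotypes with ≥10 input reads and ≥1 read per output. Fitness is the logarithm of genotype enrichment over wild-type enrichment, using inverse-variance-weighted replicate averages. The logarithm is base 2.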

Variant	polymerase ribozyme fitness (log ratio)
C10G U53C C93U A107G	≤ -4.2
U9A A19C A41C C57U C96U	≤ -4.2
U9G C32U C38U A49C G58A A60U C87G C95U G133U A142U	≤ -4.2
C10G A29U C95U C108A G117A G143C	≤ -4.2
U9C A37G G42C A73U G92C C103U	≤ -4.2
U9A A16G U45A C57A C75G G83U G92A	≤ -4.2
U9G A16C A30C G34A G58U C93G C105A A110G C118U C149U	-4.17
C10G G25U U55A G88A A106G U130A A150G	≤ -4.2
C10A C32G U44G C57U U82G G83A	≤ -4.2
U9C U44A G46C A47G C85U A121G	≤ -4.2
U9A A16G C54U C75U C76A A120U	≤ -4.2
U9G A47C C57A A66C C87A A89U A120U A121U C123A C125U U144A	≤ -4.2
C10A U13C A30C G83A G88A A98U C125A A147G	≤ -4.2
U9G A19C U55A	≤ -4.2
U9G A24U U33C G143C A147C	≤ -4.2
U9G C10A C18U A66U G81U C96U	≤ -4.2
C10A A28G U56G C85A	≤ -4.2
U9A C32A U33G A49U C51U U53A C54U G84U C103A C108G C118G C149U	≤ -4.2
U9G U53A	-3.81
C10G C51U G92A G124C	≤ -4.2
C10A C79A A97G A150G	≤ -4.2

Variant	polymerase ribozyme fitness (log ratio)
U9G C27G U31G U61G C75G G94A C105U	≤ -4.2
C10A A19C A29U C36U C57U G58A A66C G67C U82G G84U U109A	≤ -4.2
U9C A17U A89G A122G	≤ -4.2
U9C A66G C76G G92U C114A	≤ -4.2
C10G G92U	-3.24
C10G G92C	-3.61
C10G A20U A52C G86A G92U A115U G152A	≤ -4.2
U9A C32G C54A G86C U109G G136A	≤ -4.2
C10A C51U C93U U111G	≤ -4.2
U9C C54U C85A G136C	≤ -4.2
C10A A23C G50A C75G C95U C96A C123G	≤ -4.2
U9A C10U C75A C87A A110G A119C	≤ -4.2
U9C U55G	-3.53
C10A A20G A41G G46A A47C C57U C85G G133U	≤ -4.2
C10G A23C U31G C75U C87G C93A G133U G136U	≤ -4.2
C10G U55A C69G C93U C103G C116A	≤ -4.2
U9G A23U G34C C57A C93A	≤ -4.2
C10G U78G C85G U109C G140U	≤ -4.2
C10G U13A A23U C32A A41G G71C C87U C105U A115U	≤ -4.2
C10G U53A C57U G86C A106G C108G A113G U127G	≤ -4.2
U9C A21U G48A A91U C99U	≤ -4.2

Variant	polymerase ribozyme fitness (log ratio)
U9A U55G U78G G143C	≤ -4.2
U9G G46C C76A C85G U90G A121U	≤ -4.2
C10U A12C C54A C85U C108U	≤ -4.2
U9C G25C U56A C93U C99G	≤ -4.2
C10G A19U G46A C85A C105U	≤ -4.2
C10G U13C C85G U109G A115U G140U	≤ -4.2
C10A A106G G126U	≤ -4.2
C10G G11U U15C G84A G88U	≤ -4.2
U9A A47C	-4.13
C10A G34U C57U C76U C95G C116G	≤ -4.2
C10G U13C G70A U111G U148A	≤ -4.2
U9A C14U A49U C51U G86U A89U	≤ -4.2
C10G U77A C93U U144G	≤ -4.2
U9C C57G G140C	≤ -4.2
C10G C38A G88A A97U	≤ -4.2
U9G C10A C43U C57G C99A	≤ -4.2
U9A C35U U55A A91C	≤ -4.2
U9G U139C	≤ -4.2
U9G A29C C32G G58C C76A C79A C118G G141C G143A	≤ -4.2
C10A A16G C32G G50A G133C	≤ -4.2
U9G A52G C72G C96U C105A A115G U127C G133U	≤ -4.2

Variant	polymerase ribozyme fitness (log ratio)
U9G U145C	-3.95
U9C A17U A30G G42C C51A C87U	≤ -4.2
C10A U31C G46A C69G G80A U82A G86A C99U G100U G141A	≤ -4.2
C10G C54U G62C G86U U146C	≤ -4.2
U9G C87U	-4.11
U9C A47C A60G G84C C93A C105G A113U U127C	≤ -4.2
C10G A47U C54A C72U G81A G92C G133U U135G	≤ -4.2
C10U A17G A52C C75U C99U U102C U127A U135A	≤ -4.2
U9G G92A C116U C125U U134C	≤ -4.2
U9A A91C C116G U148A	-3.93
C10G C36G A47U G65U C79G C93U C99G G126C U144C U148C	≤ -4.2
U9A A73G	≤ -4.2
U9G A16U G80A G83C	-4.08
U9G G25C A47G C87A G92U C114A	≤ -4.2
U9G U77C C85A C108U A120C G141C	≤ -4.2
U9C A30G A66C G84A A150C	≤ -4.2
U9G C96U	-3.76
C10A C14G U77A C85A G92A A110G A122G	≤ -4.2
C10G U13G C87U C125U	≤ -4.2
C10A A41U C51G C87A	≤ -4.2
